Columns and labels:
[1] = substrate: NC(=O)OP(=O)(O)O; test: oxamate consumption by HPLC, reverse reaction; assay type: biochemical, Escherichia coli; conditions: oxamate fixed at 40 mM, 10 mM MgCl2, 100 mM Tris pH 9.0, 30 °C, 100 nM enzyme
Text: (§1) oxamate consumption by HPLC, reverse reaction on AllFGH (AllF-AllG-AllH; FdrA-YlbE-YlbF), oxamic transcarbamylase (OXTCase)

[2] = substrate: NC(=O)C(=O)O; test: oxamate consumption by HPLC, reverse reaction; assay type: biochemical, Escherichia coli; conditions: co-substrate carbamoyl phosphate, 10 mM MgCl2, 100 mM Tris pH 9.0, 30 °C, 100 nM enzyme
Text: as §1

B1: AllFGH (AllF-AllG-AllH; FdrA-YlbE-YlbF), oxamic transcarbamylase (OXTCase) (Escherichia coli K-12) (protein)
chain 1: MIHAFIKKGCFQDSVSLMIISRKLSESENVDDVSVMMGTPANKALLDTTGFWHDDFNNATPNDICVAIRSEAADAGIAQAIMQQLEEALKQLAQGSGSSQALTQVRRWDSACQKLPDANLALISVAGEYAAELANQALDRNLNVMMFSDNVTLEDEIQLKTRAREKGLLVMGPDCGTSMIAGTPLAFANVMPEGNIGVIGASGTGIQELCSQIALAGEGITHAIGLGGRDLSREVGGISALTALEMLSADEKSEVLAFVSKPPAEAVRLKIVNAMKATGKPTVALFLGYTPAVARDENVWFASSLDEAARLACLLSRVTARRNAIAPVSSGFICGLYTGGTLAAEAAGLLAGHLGVEADDTHQHGMMLDADSHQIIDLGDDFYTVGRPHPMIDPTLRNQLIADLGAKPQVRVLLLDVVIGFGATADPAASLVSAWQKACAARLDNQPLYAIATVTGTERDPQCRSQQIATLEDAGIAVVSSLPEATLLAAALIHPLSPAAQQHTPSLLENVAVINIGLRSFALELQSASKPVVHYQWSPVAGGNKKLARLLERLQ
chain 2: MFTSVAQANAAVIEQIRRARPHWLDVQPASSLISELNEGKTLLHAGPPMRWQEMTGPMKGACVGACLFEGWAKDEAQALAILEQGEVNFIPCHHVNAVGPMGGITSASMPMLVVENVTDGNRAYCNLNEGIGKVMRFGAYGEDVLTRHRWMRDVLMPVLSAALGRMERGIDLTAMMAQGITMGDEFHQRNIASSALLMRALAPQIARLDHDKQHIAEVMDFLSVTDQFFLNLAMAYCKAAMDAGAMIRAGSIVTAMTRNGNMFGIRVSGLGERWFTAPVNTPQGLFFTGFSQEQANPDMGDSAITETFGIGGAAMIAAPGVTRFVGAGGMEAARAVSEEMAEIYLERNMQLQIPSWDFQGACLGLDIRRVVETGITPLINTGIAHKEAGIGQIGAGTVRAPLACFEQALEALAESMGIG
chain 3: MTIIHPLLASSSAPNYRQSWRLAGVWRRAINLMTESGELLTLHRQGSGFGPGGWVLRRAQFDALCGGLCGNERPQVVAQGIRLGRFTVKQPQRYCLLRITPPAHPQPLAAAWMQRAEETGLFGPLALAASDPLPAELRQFRHCFQAALNGVKTDWRHWLGKGPGLTPSHDDTLSGMLLAAWYYGALDARSGRPFFACSDNLQLVTTAVSVSYLRYAAQGYFASPLLHFVHALSCPKRTAVAIDSLLALGHTSGADTLLGFWLGQQLLQGKP
notes: full-length subunits co-expressed from pET30b (pMB191) in E. coli BL21(DE3); 6xHis at N-terminus of AllF and C-terminus of AllH, tags kept; 62, 46, 31 kDa; 555, 419, 271 aa
- Km [1]: 1.3 mM
- kcat [1]: 35.5 s⁻¹
- kcat/Km [1]: 27300 M⁻¹ s⁻¹
- Km [2]: 36.9 mM
- kcat [2]: 58.5 s⁻¹
- kcat/Km [2]: 1600 M⁻¹ s⁻¹
